These results are taken from paper PMC7921410, “Structure of mammalian Mediator complex reveals Tail module architecture and interaction with a conserved core” (Nature Communications, 2021).

In one assay the target is T1, MED24 (mouse (Mus musculus; endogenous in CH12), UniProt Q99K74 1-987).
T1 construct: MED24, Mus musculus, endogenous lower Tail subunit of Mediator; source: endogenous, CH12 mouse B lymphoma nuclear extract; immunopurified as part of Mediator (FLAG M2 agarose, FLAG peptide elution)
T1 sequence (looked up): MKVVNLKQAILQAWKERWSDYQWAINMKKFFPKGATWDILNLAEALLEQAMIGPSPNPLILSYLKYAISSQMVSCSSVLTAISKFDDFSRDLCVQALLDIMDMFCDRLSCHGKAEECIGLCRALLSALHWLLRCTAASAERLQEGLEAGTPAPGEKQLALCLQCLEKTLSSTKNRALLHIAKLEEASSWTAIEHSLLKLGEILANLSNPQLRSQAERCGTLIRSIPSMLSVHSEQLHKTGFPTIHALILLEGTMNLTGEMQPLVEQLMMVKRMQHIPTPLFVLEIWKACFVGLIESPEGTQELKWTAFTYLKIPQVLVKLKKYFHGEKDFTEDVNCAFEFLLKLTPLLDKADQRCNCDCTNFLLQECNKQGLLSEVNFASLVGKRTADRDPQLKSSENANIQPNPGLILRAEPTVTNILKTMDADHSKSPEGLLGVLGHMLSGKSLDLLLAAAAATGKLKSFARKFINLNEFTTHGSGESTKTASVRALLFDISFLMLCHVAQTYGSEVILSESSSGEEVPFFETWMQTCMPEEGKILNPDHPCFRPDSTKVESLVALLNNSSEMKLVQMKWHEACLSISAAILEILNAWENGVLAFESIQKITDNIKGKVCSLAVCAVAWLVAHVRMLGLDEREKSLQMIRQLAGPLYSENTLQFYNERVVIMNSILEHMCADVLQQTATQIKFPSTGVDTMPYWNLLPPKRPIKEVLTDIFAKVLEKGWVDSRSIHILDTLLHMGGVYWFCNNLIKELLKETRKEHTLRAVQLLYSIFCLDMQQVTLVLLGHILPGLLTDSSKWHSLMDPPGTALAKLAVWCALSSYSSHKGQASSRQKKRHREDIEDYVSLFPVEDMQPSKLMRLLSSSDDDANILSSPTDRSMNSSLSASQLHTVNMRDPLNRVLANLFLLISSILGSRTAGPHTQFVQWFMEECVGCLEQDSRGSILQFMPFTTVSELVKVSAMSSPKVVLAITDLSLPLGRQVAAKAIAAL
Briefly: cryo-EM structure; endogenous mouse Mediator immunopurified from CH12 nuclear extract through 3×FLAG-MED19 or 3×FLAG-MED25; eluted in 50 mM HEPES pH 7.9, 100 mM KCl, 5% glycerol, 1 mM EDTA, 0.005% NP-40; map at 4.0 Å overall, focused refinement of the MED1 and knob/hook ends (6-10 Å). The following applies: both partners purified.

A further assay addresses T2, MED23 (mouse (Mus musculus; endogenous in CH12), UniProt Q80YQ2 1-1367).
T2 construct: MED23, Mus musculus, endogenous lower Tail subunit of Mediator; Model building started from the X-ray structure of human MED23 (PDB 6H02); source: endogenous, CH12 mouse B lymphoma nuclear extract; immunopurified as part of Mediator (FLAG M2 agarose, FLAG peptide elution)
T2 sequence (looked up): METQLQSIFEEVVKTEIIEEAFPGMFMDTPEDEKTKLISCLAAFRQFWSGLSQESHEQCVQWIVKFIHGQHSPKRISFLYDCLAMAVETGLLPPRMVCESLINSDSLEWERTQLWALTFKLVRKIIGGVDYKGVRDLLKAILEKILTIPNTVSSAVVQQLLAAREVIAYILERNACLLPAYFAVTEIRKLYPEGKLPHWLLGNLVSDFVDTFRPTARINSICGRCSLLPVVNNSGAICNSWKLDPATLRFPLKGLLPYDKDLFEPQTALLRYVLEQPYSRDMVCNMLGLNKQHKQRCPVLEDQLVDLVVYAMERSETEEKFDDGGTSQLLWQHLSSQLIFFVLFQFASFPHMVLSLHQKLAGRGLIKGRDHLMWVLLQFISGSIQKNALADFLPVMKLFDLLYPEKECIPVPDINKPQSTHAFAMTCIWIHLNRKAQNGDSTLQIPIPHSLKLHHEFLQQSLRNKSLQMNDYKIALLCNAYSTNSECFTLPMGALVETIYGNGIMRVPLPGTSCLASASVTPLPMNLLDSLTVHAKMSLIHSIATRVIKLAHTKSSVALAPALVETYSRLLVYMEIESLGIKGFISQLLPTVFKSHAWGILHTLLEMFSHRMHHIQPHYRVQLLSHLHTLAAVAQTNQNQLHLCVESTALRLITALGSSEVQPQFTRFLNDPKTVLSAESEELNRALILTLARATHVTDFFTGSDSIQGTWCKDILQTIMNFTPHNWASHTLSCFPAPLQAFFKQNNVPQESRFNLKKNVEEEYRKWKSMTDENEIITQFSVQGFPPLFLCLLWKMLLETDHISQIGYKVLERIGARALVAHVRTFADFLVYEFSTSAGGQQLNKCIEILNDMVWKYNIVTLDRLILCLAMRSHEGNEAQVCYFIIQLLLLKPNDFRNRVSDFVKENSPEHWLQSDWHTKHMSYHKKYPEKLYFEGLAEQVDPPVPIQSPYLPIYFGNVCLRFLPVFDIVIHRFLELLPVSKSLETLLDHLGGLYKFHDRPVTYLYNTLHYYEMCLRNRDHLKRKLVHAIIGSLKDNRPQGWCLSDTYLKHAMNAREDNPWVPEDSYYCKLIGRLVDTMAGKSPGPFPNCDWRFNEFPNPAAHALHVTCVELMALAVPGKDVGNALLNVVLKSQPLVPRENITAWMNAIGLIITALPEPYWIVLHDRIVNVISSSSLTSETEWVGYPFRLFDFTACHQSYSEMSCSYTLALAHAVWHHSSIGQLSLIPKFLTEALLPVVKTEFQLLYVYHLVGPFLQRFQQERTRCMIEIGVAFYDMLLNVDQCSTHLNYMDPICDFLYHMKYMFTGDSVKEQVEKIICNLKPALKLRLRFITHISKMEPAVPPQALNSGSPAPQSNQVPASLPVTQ
Described as above. The settings on record: both partners purified.

B1: MED25 (natural protein, mouse (Mus musculus; endogenous in CH12), UniProt Q8VCB2 1-745, looked up)
chain: MVPGSEGPARAGGLVADVVFVIEGTANLGPYFEELRKHYLLPAIEYFNGGPPAETDFGGDYGGTQYSLVVFNTVDCAPESYVQCHAPTSSAYEFVTWLDGIKFMGGGGESCSLIAEGLSTALQLFDDFKKMREQIGQTHRVCLLICNSPPYLLPAVESTTYSGCTTESLVQKIGERGIHFSIVSPRKLPALRLLFEKAAPPALLEPLQQPADVSQDPRHMVLVRGLVLPVGGSSTSGSLQTKQAVPLPPAPASAATLSAAPPQALPPVPPQYQVPGNLSAAQVAAQNAVEAAKSQKAGLGPRFSPINPLQQAAPGVGPPFSQAPAPPLAPVPPGAPKPPPASQPSLVSTVAPGPVLAAPAQPGAPSLAGTVTPGGVNGPSAAQLGGPALGGQQSVSNKLLAWSGVLEWQEKPKPASVDANTKLTRSLPCQVYVNHGENLKTEQWPQKLIMQLIPQQLLTTLGPLFRNSRMVQFHFTNKDLESLKGLYRIMGNGFAGCVHFPHTAPCEVRVLMLLYSSKKKIFMGLIPYDQSGFVNGIRQVITNHKQVQQQKLEQQRGMGAQQAPPVLGPILEEQARPPQNLLQLRAPQPQPQGAVGASAATGQPQPQGATQAPTGAPQGPPGAAPGPPPSGPILRPQNPGANPQLRSLLLNPAPPQTGVPPPQASLHHLQPPGAPTLLPPHQSMGQPQLGPQLLHPPPAQSWPTQLPQRAPLPGQMLLSGGPRGPVPQPGLQPSVMEDDILMDLI
notes: MED25, Mus musculus, endogenous lower Tail subunit of Mediator; only the N-terminal von Willebrand domain (aa 15-216) is seen in the map; The 3×FLAG tag stands on MED25 only in the MED25-FLAG cell line; in the MED19-FLAG line MED25 is untagged; Images from the datasets were combined for the final map; also called MED25-FLAG; source: endogenous, CH12 mouse B lymphoma nuclear extract; …
On to B1, for which the binding result with MED24 and with MED23 was “binds” in each case.

B2: MED15 (natural protein, mouse (Mus musculus; endogenous in CH12), UniProt Q924H2 1-789, looked up)
chain: MDVSGQETDWRSAAFRQKLVSQIEDAMRKAGVAHSKSSKDMESHVFLKAKTRDEYLSLVARLIIHFRDIHNKKSQASVSDPMNALQSLTGGPTPGAAGIGMPPRGPGQSLGGMGGLGAMGQPLPLSGQPPPGTSGMAPHGMAVVSTATPQTQLQLQQVALQQQQQQQQQQQFQQQQAALQQQQQQQQQQQQQQQFQAQQNAMQQQFQAVVQQQQLQQQQQQQHLIKLHHQSQQQQIQQQQLQRMAQLQLQQQQQQQQQQALQAQPPMQQPSMQQPQPPPSQALPQQLSQLHHPQHHQPPPQAQQSPIAQNQPPQIPPQSQSQPLVSQAQALPGPMLYAAQQQLKFVRAPMVVQQPQVQPQVQQVQPQVQPQAAVQAAQSAQMVAPGVQMIAEALAQGGMHVRARFPPTSTMSAGPSSSISLGGQPTTQVSQSSLTMLSSPSPGQQVQTPQSMPPPPQPSPQPGSQPNSNVSSGPAPSPSSFLPSPSPQPSQSPVTARTPQNFSVPSPGPLNTPVNPSSVMSPAGSSQAEEQQYLDKLKQLSKYIEPLRRMINKIDKNEDRKKDLSKMKSLLDILTDPSKRCPLKTLQKCEIALEKLKNDMAVPTPPPPPVLPTKQQDLCQPLLDAVLANIRSPVFNHSLYRTFVPAMMAIHGPPIVSPVVCSRKRRFEEDERQSIPNVLQGEVARLDPKFLVNLDPSHCSNNGTVHLICKLDDKDLPSVPPLELSVPADYPAQSPMWIDRQWQYDANPFLQSVHRCMTSRLLQLPDKHSVTALLNTWAQSIHQACLSAA
notes: MED15, Mus musculus, endogenous lower Tail subunit of Mediator; only the C-terminal portion (from residue 620) is seen in the map; source: endogenous, CH12 mouse B lymphoma nuclear extract; immunopurified as part of Mediator (FLAG M2 agarose, FLAG peptide elution)
Consider B2, for which the binding result with MED24 and with MED23 was “binds” in each case.
